Bridge positions count the residues as written; N and C are the ends. Ends that are not written are not given here.
What was measured:
[1] = Stability of cortistatin-29, free versus in LAP-CST, at room temperature; type: physicochemical
Protocol: On the other hand, whereas the amount of recombinant cortistatin-29 decreased in a 82% after 15 minutes at room temperature, the amount of cortistatin-29 in LAP-CST remains stable for at least 7 days.

sstr4 = sstr4 (Homo sapiens, UniProt P31391); settings: cited from earlier work
Chain of sstr4 (P31391 whole entry): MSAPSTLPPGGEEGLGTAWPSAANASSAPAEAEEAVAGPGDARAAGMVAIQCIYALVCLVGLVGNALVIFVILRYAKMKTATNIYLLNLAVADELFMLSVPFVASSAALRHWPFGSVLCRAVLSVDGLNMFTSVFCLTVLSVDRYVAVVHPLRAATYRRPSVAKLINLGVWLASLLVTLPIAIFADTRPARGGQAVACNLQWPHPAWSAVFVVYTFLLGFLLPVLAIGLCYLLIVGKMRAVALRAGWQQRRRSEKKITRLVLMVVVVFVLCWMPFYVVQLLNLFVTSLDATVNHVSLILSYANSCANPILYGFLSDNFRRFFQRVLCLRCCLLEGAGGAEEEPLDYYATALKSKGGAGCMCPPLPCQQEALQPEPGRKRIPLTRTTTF

sstrt2 receptor = sstrt2 receptor (Homo sapiens, UniProt P30874); settings: cited from earlier work
Chain of sstrt2 receptor (P30874 whole entry): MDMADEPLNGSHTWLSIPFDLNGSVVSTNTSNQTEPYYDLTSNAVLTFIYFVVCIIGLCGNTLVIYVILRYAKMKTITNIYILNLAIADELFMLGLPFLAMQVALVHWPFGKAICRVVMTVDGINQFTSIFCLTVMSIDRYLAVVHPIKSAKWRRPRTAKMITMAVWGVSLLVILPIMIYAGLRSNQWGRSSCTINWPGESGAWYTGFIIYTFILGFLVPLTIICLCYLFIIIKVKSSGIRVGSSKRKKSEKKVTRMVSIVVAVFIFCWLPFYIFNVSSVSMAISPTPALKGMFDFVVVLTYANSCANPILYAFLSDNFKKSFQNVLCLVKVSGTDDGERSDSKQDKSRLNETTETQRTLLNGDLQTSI

sstr1 = sstr1 (Homo sapiens, UniProt P30872); settings: cited from earlier work
Chain of sstr1 (P30872 whole entry, the tested form may be a part): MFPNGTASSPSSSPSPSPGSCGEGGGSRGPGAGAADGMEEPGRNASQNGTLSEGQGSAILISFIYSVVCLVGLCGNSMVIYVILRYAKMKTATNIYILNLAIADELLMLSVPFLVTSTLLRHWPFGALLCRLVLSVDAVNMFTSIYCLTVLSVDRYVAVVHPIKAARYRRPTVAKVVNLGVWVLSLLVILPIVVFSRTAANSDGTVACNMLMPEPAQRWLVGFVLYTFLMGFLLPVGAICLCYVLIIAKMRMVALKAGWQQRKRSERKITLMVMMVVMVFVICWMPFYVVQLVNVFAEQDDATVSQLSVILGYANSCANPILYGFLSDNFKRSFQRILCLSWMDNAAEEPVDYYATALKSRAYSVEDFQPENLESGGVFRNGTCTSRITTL

[2] = test system: LAP-GS-MMP-GS-CST-29r fusion protein (SP-LAP-L1-MMP-L2-CST29r)
[3] = test system: somatostatin receptors, sstr1-sstr5; settings: cited from earlier work
[4] = cited from earlier work
[5] = test system: bleomycin-induced lung fibrosis; assay: Bleomycin-induced lung fibrosis, nasal inhalation (Example 3); type: in vivo, C57Bl/6 mice; settings: once a week, 20 pg
Protocol: (§1) FIG. 3 illustrates the experiments performed wherein lung fibrosis was induced by intratracheal injection of bleomycin (50 μg/kg body weight, dissolved in 50 μl of saline) in C57Bl/6 mice. Mice were treated by nasal inhalation of saline (group bleomycin+saline), cortistatin (group belomycin+CST, 3 times per week, 10 ng each time), or LAP-CST (Bleomycin+LAP-CST, once a week, 20 pg). After 18 days, lungs were dissected and processed for histological analysis using Mason Trichromic staining and Sirius Red staining. Lung fibrosis and tissue damage were quantified using Image J program and scored using an established clinical index from 0 to 4 in a blinded fashion. Mortality caused by fibrosis is shown in this figure.
as §1, with “Lung” for “FIG. 3 illustrates the experiments performed wherein lung”, “fashion.” for “fashion. Mortality caused by fibrosis is shown in this figure.”

recombinant MMP1 = target: T1, recombinant MMP1 (Homo sapiens, UniProt P03956); assay: Treatment of LAP-CST supernatants with recombinant MMP1, Cortistatin-29 recovered; type: biochemical; settings: 48 h supernatants treated with recombinant MMP1; diminished from 80 ng; 12 hours later
T1 sequence (P03956 100-469): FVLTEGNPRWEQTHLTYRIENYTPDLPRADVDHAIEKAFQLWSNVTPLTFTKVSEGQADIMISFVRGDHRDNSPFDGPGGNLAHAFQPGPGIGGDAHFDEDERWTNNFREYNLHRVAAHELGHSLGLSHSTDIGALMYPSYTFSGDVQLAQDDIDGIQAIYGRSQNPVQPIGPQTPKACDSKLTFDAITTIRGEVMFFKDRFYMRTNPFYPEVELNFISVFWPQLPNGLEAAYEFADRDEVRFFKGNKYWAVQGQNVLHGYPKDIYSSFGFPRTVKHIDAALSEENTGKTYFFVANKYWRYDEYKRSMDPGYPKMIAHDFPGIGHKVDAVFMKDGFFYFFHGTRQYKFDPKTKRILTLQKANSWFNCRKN
Text: The amount of LAP-MMP-CST-29r peptide in culture supernatants was indirectly determined by measuring the concentration of rat Cortistatin-29 by using a specific ELISA (Phoenix Pharmaceuticals).

[6] = test system: bleomycin-induced lung fibrosis; assay: Bleomycin-induced lung fibrosis, comparison of LAP constructs (Example 5); type: in vivo, C57Bl/6 mice; settings: nasal inhalation, once a week, 20 pg, 18 days
Protocol: FIG. 5. Lung fibrosis and tissue damage were quantified using Image J program and scored using an established clinical index from 0 to 4 in a blinded fashion. Mortality caused by fibrosis is shown in this figure.
Lung fibrosis was induced by intratracheal injection of bleomycin (50 μg/kg body weight, dissolved in 50 μl of saline) in C57Bl/6 mice. Mice were treated once a week by nasal inhalation of 20 pg of empty LAP (A), LAP containing only cortistatin (B), LAP containing cortistatin and linkers LAP-L1L2-CST but not MMP site (C), or LAP containing cortistatin, linkers and MMP site (D). After 18 days, lungs were dissected and processed for histological analysis using Mason Trichromic staining and Sirius Red staining. Lung fibrosis and tissue damage were quantified using Image J program and scored using an established clinical index from 0 to 4 in a blinded fashion.

[7] = test system: liver fibrosis induced by CCl4; assay: CCl4-induced liver fibrosis; type: in vivo, C57Bl/6 mice; settings: systemic, once a week, 100 pg/mouse, 6 weeks
Protocol: FIG. 4 is a quantification of liver fibrosis and tissue damage using Image J program and scored using an established clinical ISHAK index from 0 to 4 in a blinded fashion.
Liver fibrosis was induced by intraperitoneal injection of CCl4 (3:9 in olive oil, 40 μl/mouse, every three days) in C57Bl/6 mice. Mice were treated three times a week with cortistatin (500 ng/mouse) or once a week with LAP-CST (100 pg/mouse). After 6 weeks, liver was dissected and processed for histological analysis using Mason Trichromic staining and Sirius Red staining. Liver fibrosis and tissue damage were quantified using Image J program and scored using an established clinical ISHAK index from 0 to 4 in a blinded fashion (FIG. 4).

[8] = test system: dermal fibrosis induced by bleomycin; assay: Bleomycin-induced dermal sclerodermia, local treatment; type: in vivo, C57Bl/6 mice
Protocol: FIG. 2 illustrates the experiments performed wherein sclerodermia was induced by intradermal injection of bleomycin (3 times per week, during four weeks) in an area of […] in the dorsal skin of C57Bl/6 mice. Mice were locally treated around the lesion area with saline (group bleomycin), with cortistatin (group belomycin+CST, 3 time per week, 10 ng each time), with empty LAP vector (Bleomycin+LAP, once a week, 20 pg) or with LAP-CST (Bleomycin+LAP-CST, once a week, 20 pg). Naïve animals without bleomycin were used as basal control reference. After four weeks, lesioned skin area was dissected and processed for histological analysis using Mason Trichromic staining. Skin thickness (from epidermis to hypodermis) was quantified using Image J program. Fibrotic deposits in skin are stained in blue in sections. […] Skin thickness (from epidermis to hypodermis) was quantified using Image J program. […]

cortistatin-29: rat sequence of cortistatin, 29 amino acids (GenBank: EDL81150.1) (QERPPLQQPPHRDKKPCKNFFWKTFSSCK-OH; disulfide 17-28 (inferred); ends not checked; UniProt Q62949 84-112, looked up) [reference compound]
decrease of the amount of cortistatin-29 ([1]; after 15 minutes at room temperature): 82%

C[C@@H](O)[C@@H]1NC(=O)[C@H](CCCCN)NC(=O)[C@@H](Cc2c[nH]c3ccccc23)NC(=O)[C@H](Cc2ccccc2)NC(=O)[C@@H](NC(=O)[C@H](N)Cc2ccccc2)CSSC[C@@H](C(=O)N[C@H](CO)[C@@H](C)O)NC1=O [octreotide]
affinity to the sstr4 receptor (sstr4): completely loses its affinity | binding to the sstrt2 receptor (sstrt2 receptor): keeps binding | affinity to the sstr1 receptor (sstr1): completely loses its affinity

recombinant MMP1
amount of Cortistatin-29 (indirectly measuring LAP-CST) recovered from the culture, 12 hours after MMP1 treatment [2]: diminished from 80 ng to 20 ng, 12 hours later | amount of Cortistatin-29 (indirectly measuring LAP-CST) recovered from the culture, before MMP1 treatment [2]: diminished from 80 ng to 20 ng, 12 hours later

cortistatin
affinity to somatostatin receptors [3]: nanomolar affinity | blood half-life [4]: a few minutes

B1: LAP-CST: fusion protein of LAP of TGFβ-1 (Met1-Ser273), MMP cleavage site PLGLWA flanked by GGGGS linkers, and rat cortistatin-29 (protein)
chain: MPPSGLRLLPLLLPLLWLLVLTPGRPAAGLSTCKTIDMELVKRKRIEAIRGQILSKLRLASPPSQGEVPPGPLPEAVLALYNSTRDRVAGESAEPEPEPEADYYAKEVTRVLMVETHNEIYDKFKQSTHSIYMFFNTSELREAVPEPVLLSRAELRLLRLKLKVEQHVELYQKYSNNSWRYLSNRLLAPSDSPEWLSFDVTGVVRQWLSRGGEIEGFRLSAHCSCDSRDNTLQVDINGFTTGRRGDLATIHGMNRPFLLLMATPLERAQHLQSEFGGGGSPLGLWAGGGGSAAAQERPPLQQPPHRDKKPCKNFFWKTFSSCK
modifications: Fusion peptide
lung fibrosis and damage ([5]; 18 days, as effective as cortistatin 3 times per week at 500-fold higher dose): significantly reduced lung fibrosis and damage | survival ([5]; bleomycin alone causes 80% of mortality): dramatically increased survival | time the amount of cortistatin-29 remains stable ([1]; cortistatin-29 in LAP-CST): at least 7 days | amount of Cortistatin-29 (indirectly measuring LAP-CST) recovered from the culture (recombinant MMP1): 20 ng | protection versus bleomycin-induced lung fibrosis and mortality [6]: protected | survival ([7]; mortality of 50% in untreated mice): 100% | liver fibrotic area ([7]; similar to cortistatin 500 ng/mouse three times a week): significantly reduced liver fibrotic area | dermal fibrosis (skin thickness, Mason Trichromic staining) ([8]; local, once a week, 20 pg, four weeks, compared with LAP alone, as effective as cortistatin 10 ng 3 times per week): effective in reducing dermal fibrosis | effectiveness of a single injection relative to recombinant cortistatin ([8]; weekly 20 pg versus cortistatin 3 times per week at 500-fold higher concentration): at least 1,500 times

Reference: patent US20220135640A1, “CORTISTATIN OR AN ANALOGUE THEREOF AS A PHARMACEUTICALLY ACTIVE AGENT IN LATENT FORM” (CONSEJO SUPERIOR DE INVESTIGACIONES CIENTIFICAS (CSIC), priority 2019, published 2022)
